Consider one substance from PMC6503762.

In the assay the target is MSBI1.176 Rep WH1 domain (residues 1-135) (MSBI1.176 (bovine meat and milk factor DNA isolated from a brain sample of a human patient with multiple sclerosis)). Briefly: crystal structure; hanging-drop vapor diffusion at 18°C, 1:1 protein (5 mg/ml in 25 mM Tris-HCl pH 7.6, 300 mM NaCl) and 0.2 M magnesium acetate, 20% PEG 3350; S-SAD phasing; 1.53 Å; one dimer in the asymmetric unit.

For the substance “MSBI1.176 Rep WH1 domain (residues 1-135) (domain or fragment)”, the stoichiometry N came to 2.
